Like-named read-outs stand apart in the source and are kept apart here.
T1: His-tagged recombinant monkey (Cynomolgus monkey, Macaca fascicularis) IL2RA protein (cynoIL2RA-his, Sino … (Cynomolgus monkey (Macaca fascicularis), UniProt Q5MNY4 22-213 (rhesus entry)))
T1 construct: Bought protein; the soluble protein is most likely only an extracellular part of it; not shown: His tag
T1 chain: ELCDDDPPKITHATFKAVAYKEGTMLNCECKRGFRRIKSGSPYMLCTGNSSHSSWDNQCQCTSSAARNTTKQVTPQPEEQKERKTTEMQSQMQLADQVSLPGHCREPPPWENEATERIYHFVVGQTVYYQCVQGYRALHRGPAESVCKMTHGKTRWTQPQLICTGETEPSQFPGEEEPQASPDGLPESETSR

T2: His-tagged human IL2RA protein (hIL2RA-his, ACROBiosystems Inc., Cat #: ILA-H52H9) (human, UniProt P01589 22-213, limits assumed)
T2 construct: Bought protein; the soluble protein is most likely only an extracellular part of it; not shown: His tag
T2 sequence: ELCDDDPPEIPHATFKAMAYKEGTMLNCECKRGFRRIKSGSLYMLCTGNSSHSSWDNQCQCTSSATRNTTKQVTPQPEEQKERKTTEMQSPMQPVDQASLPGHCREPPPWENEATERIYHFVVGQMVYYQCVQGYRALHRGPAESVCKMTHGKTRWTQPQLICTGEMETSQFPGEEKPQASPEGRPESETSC

T3: monkey (Macaca fascicularis) IL2RA expressed on CHO-S cells (CHO-S-fasIL2RA cells) (monkey (Macaca fascicularis), UniProt Q5MNY4 22-272)
T3 chain: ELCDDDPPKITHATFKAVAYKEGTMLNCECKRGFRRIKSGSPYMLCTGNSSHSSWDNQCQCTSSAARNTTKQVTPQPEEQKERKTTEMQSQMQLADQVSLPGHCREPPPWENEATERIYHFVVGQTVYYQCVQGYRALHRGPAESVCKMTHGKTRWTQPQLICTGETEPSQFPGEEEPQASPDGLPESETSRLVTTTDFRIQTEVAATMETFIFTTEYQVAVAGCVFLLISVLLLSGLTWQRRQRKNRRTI

T4: human IL2RA expressed on CHO-S cells (CHO-S-hIL2RA cells) (human, UniProt P01589 22-272)
T4 sequence: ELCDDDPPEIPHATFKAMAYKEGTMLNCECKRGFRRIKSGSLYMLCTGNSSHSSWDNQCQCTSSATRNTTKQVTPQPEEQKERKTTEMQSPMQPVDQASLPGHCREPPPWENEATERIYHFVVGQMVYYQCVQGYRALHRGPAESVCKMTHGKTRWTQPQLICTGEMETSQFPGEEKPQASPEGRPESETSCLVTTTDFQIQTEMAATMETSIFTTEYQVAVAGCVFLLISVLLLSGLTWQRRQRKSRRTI


Legend:
[1] = molecular target: T1, His-tagged recombinant monkey …; test: SPR (Biacore 8K), antibody captured on Protein A chip, His-tagged antigen as analyte, 1:1 fit;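 also: antibodies captured at about 150 RU, antigen injected as a titration series, dissociation phase recorded over 400 s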
Method: (§1) Purified anti-IL2RA antibodies were diluted to 2 g/mL and then injected into the Biacore™ 8K biosensor at 10 L/min for about 50 seconds to achieve a desired protein density (e.g., about 150 response units (RU)). […] Dissociation was monitored for 400 seconds. The chip was regenerated after the last injection of each titration with glycine (pH 2.0, 30 L/min for 30 seconds).

[2] = molecular target: T2, His-tagged human IL2RA protein …; test: as above
Method: as §1

[3] = molecular target: T3, monkey (Macaca fascicularis) IL2RA …; test: flow cytometry on CHO-S cells expressing the target, anti-human IgG Fc secondary
Method: (§2) CHO-S-hIL2RA cells or CHO-S-fasIL2RA cells were plated in a 96-well plate at a density of 2×10⁵ cells/well. Serially diluted purified anti-IL2RA antibodies (maximum concentration: 9 μg/mL, 2-fold dilutions, 11 gradients) were added to each well and were incubated at 4° C. for 30 minutes.
(§3) The cells were collected, and the mean fluorescence intensity (MFI) was determined. A fitting curve was obtained using Log(antibody concentration (μg/mL)) as the X-axis and mean MFI as the Y-axis.

[4] = molecular target: T4, human IL2RA expressed on CHO-S cells …; test: as above
Method: as §2, §3

[5] = molecular target: T1, His-tagged recombinant monkey …; test: SPR (Biacore 8K), antibody captured on Protein A chip, His-tagged antigen as analyte; "-" means no binding
Method: as §1

[6] = molecular target: T4, human IL2RA expressed on CHO-S cells …; test: flow cytometry blocking assay on CHO-S-hIL2RA cells; blocked ligand: biotinylated human IL-2 at 2.5 µg/mL, detected with APC streptavidin
Method: (§4) CHO-S-hIL2RA cells were seeded in a 96-well plate (cell density 2×10⁵ cells/well) and incubated at 37° C. overnight. […] The above 96-well plate was incubated at 4° C. for 20 minutes.
(§5) The mean fluorescence intensity (MFI) was determined. A fitting curve was obtained using Log(antibody concentration (μg/mL)) or antibody concentration (μg/mL) as the X-axis and Log(mean MFI) or MFI as the Y-axis.

[7] = molecular target: T4, human IL2RA expressed on CHO-S cells …; test: as above; remark: listed apart in the source
Method: as §4, §5

Binder	Kd [1]	koff [1]	kon [1]	Kd [2]	koff [2]	kon [2]	EC50 [3]	EC50 [4]	IC50 (read off the curve) [6]	IC50 (read off the curve) [7]	binding result [5]
anti-IL2RA antibody 11C3 (antibody, human IgG1, V domains shown) VH: QVQLVQSGAEVKKPGASVKVSCKASGYTFNSYYIHWVRQAPGQGLEWLGIINPTGGRTIYAQKFQGRVTMTRDTSTTTVDMELSSLRSEDTAVYYCARVPGYCKDTSCQDFYYYYGMDVWGQGSTVTVSS VL: not shown	0.528 nM	0.000166 s⁻¹	314000 M⁻¹ s⁻¹	0.266 nM	9.42e-05 s⁻¹	354000 M⁻¹ s⁻¹	0.111 µg/mL	0.099 µg/mL			
RG6292 analog (antibody, V domains shown, RG6292 is described as a human IgG1 monoclonal antibody) VH: QVQLVQSGAEVKKPGASVKVSCKASGYTFTSYYMHWVRQAPGQGLEWMGIINPSGGSTSYAQKFQGRVTMTRDTSTSTVYMELSSLRSEDTAVYYCARGGAEYIPAEYFQHWGQGTLVTVSS VL: EIVMTQSPATLSLSPGERATLSCRASQSVSSYLAWYQQKPGQAPRLLIYDASNRATGIPARFSGSGSGTDFTLTISSLEPEDFAVYYCQQRPFLPTFGGGTKVEIK				43.8 nM	0.00203 s⁻¹	46300 M⁻¹ s⁻¹					no binding (tested: up to 200 nM antigen)
anti-IL2RA antibody 7B5 (antibody, V domains shown) VH: EVQLQQWGAGLLKPSETLSLTCAVYGGSFSGYYWNWIRQPPGKGLEWIGESDHSGSTHFNPSLKSRVTISLDTSKNQFSLKLNSVTAADTAVYFCARAPDYGDFDHWGQGILVTVSS VL: DIQMTQSPDSLAVSLGERATINCRSSQSVLHSSTNKRYLAWYQQKPRQPPKLLIYWTSTRESGVPDRFSGSGSGTDFTLTISSLQAEDVAVYFCQQYYSTPYTFGQGTKLEIK	24.6 nM	0.0258 s⁻¹	1.05e+06 M⁻¹ s⁻¹	6.35 nM	0.0143 s⁻¹	2.25e+06 M⁻¹ s⁻¹	0.435 µg/mL	0.411 µg/mL			
Daclizumab analog (antibody, V domains shown, Daclizumab is described as a humanized monoclonal antibody) VH: QVQLVQSGAEVKKPGSSVKVSCKASGYTFTSYRMHWVRQAPGQGLEWIGYINPSTGYTEYNQKFKDKATITADESTNTAYMELSSLRSEDTAVYVCARGGGVFDYWGQGTLVTVSS VL: DIQMTQSPSTLSASVGDRVTITCSASSSISYMHWYQQKPGKAPKLLIYTTSNLASGVPARFSGSGSGTEFTLTISSLQPDDFATYYCHQRSTYPLTFGQGTKVEVK									~4 µg/mL	~0.6 µg/mL	
anti-IL2RA antibody 5D9 (antibody, V domains shown, Variable regions were cloned onto a human IgG constant region; also called 5D9-IgG1) VH: EVQLVESGGGLVQPGGSLRLSCAASGFTVSSNYMSWVRQTPGKGLELVSFIYSGGITSYADSVRGRFTISRDNSKNTLYLQMNSLRAEDTAVYYCARDDYSNYFDYWGQGTLVTVSS VL: DIQMTQSPSSVSASVGDRVTITCRASQGISNWLAWYQQKPGKAPKLLIFAASSLQSGVPSRFSGSGSGTDFTLTISSLQPEDFATYYCQQAKSFPITFGQGTRLEIK	271 nM	0.0193 s⁻¹	71400 M⁻¹ s⁻¹	5.14 nM	0.00043 s⁻¹	83800 M⁻¹ s⁻¹	0.466 µg/mL	0.47 µg/mL			

Further lines, with some results ahead:

Kd [1]	koff [1]	kon [1]	Kd [2]	koff [2]	kon [2]	EC50 [3]	EC50 [4]	IC50 (read off the curve) [6]	IC50 (read off the curve) [7]	Binder	binding result [5]
11.8 nM	0.000447 s⁻¹	37800 M⁻¹ s⁻¹	0.655 nM	2.11e-05 s⁻¹	32300 M⁻¹ s⁻¹	0.275 µg/mL	0.326 µg/mL			anti-IL2RA antibody 13F9 (antibody, human IgG1, V domains shown) VH: QVQLVQSGAEVKRPGASVKVSCKASGYTFTTYAIHWVRQAPGQRLEWMGWINADNGYTKYSQNFQGRVTITRDTSASTAYMDLSTLRSEDTALYYCARTPRYCTSTSCSTGYYYYGMDVWGQGTTVTVSS VL: not shown	
2.53 nM	0.000901 s⁻¹	356000 M⁻¹ s⁻¹	1.27 nM	0.000235 s⁻¹	185000 M⁻¹ s⁻¹	0.039 µg/mL	0.052 µg/mL			anti-IL2RA antibody 11D2 (antibody, human IgG1, V domains shown) VH: QVQLVQSGGGVVQPGRSLRLSCAASGFTFTNYAIHWVRQAPGKGLEWVAVIWSDGDNKYYADSVKGRFTISRDNSKNTLYLQMNSLRAEDTAVYYCARTPWYCTSTNCYTGYYYYGMDVWGQGTTVTVSS VL: not shown	
118 nM	0.0343 s⁻¹	291000 M⁻¹ s⁻¹	8.9 nM	0.00268 s⁻¹	301000 M⁻¹ s⁻¹	0.091 µg/mL	0.083 µg/mL			anti-IL2RA antibody 11C12 (antibody, human IgG1, V domains shown, also called 1IC12) VH: QVQLVQSGGGLVQPGGSLRLSCSASGLTFSSYGMHWVRQAPGKGLDYVSGITNNGGRTEYADSVKGRFTISRDNSKNTLYLQMSSLRTEDTAVYYCVKEDWNGQYYYYAMDVWGQGTTVTVSS VL: not shown	
53.1 nM	0.0116 s⁻¹	218000 M⁻¹ s⁻¹	3.72 nM	0.000962 s⁻¹	258000 M⁻¹ s⁻¹	0.088 µg/mL	0.093 µg/mL			anti-IL2RA antibody 14C2 (antibody, human IgG1, V domains shown) VH: QVQLVQSGGGVVQPGRSLRLSCAASGFTFSTYGMHWVRQAPGKGLEWVAVISYDGSDKIYADSVKGRFTISRDNSKNTLFLQMNSLRAEDTAVYYCATGPMENYYYYNMDVWGLGTTVTVSS VL: not shown	
